# According to patent publication US8192734B2, “Compositions and methods for bone strengthening” (Cornell University, priority 2007, dated 2012):
# Like-named read-outs stand apart in the source and are kept apart here.
# B1: Phytase: Escherichia coli AppA2 phytase (OptiPhos, JBS United, Inc.), added to diets at feed mixing; AppA2 is SEQ ID NO: 2 (protein, listed as Escherichia coli)
# chain: MKAILIPFLSLLIPLTPQSAFAQSEPELKLESVVIVSRHGVRAPTKATQLMQDVTPDAWPTWPVKLGWLTPRGGELIAYLGHYQRQRLVADGLLAKKGCPQPGQVAIIADVDERTRKTGEAFAAGLAPDCAITVHTQADTSSPDPLFNPLKTGVCQLDNANVTDAILSRAGGSIADFTGHRQTAFRELERVLNFSQLNLCLNREKQDESCSLTQALPSELKVSADNVSLTGAVSLASMLTEIFLLQQAQGMPEPGWGRITDSHQWNTLLSLHNAQFYLLQRTPEVARSRATPLLDLIMAALTPHPPQKQAYGVTLPTSVLFIAGHDTNLANLGGALELNWTLPGQPDNTPPGGELVFERWRRLSDNSQWIQVSLVFQTLQQMRDKTPLSLNTPPGEVKLTLAGCEERNAQGMCSLAGFTQIVNEARIPACSL
# How the values were obtained:
# [1] = test system: weanling pigs fed high P diet; assay: Examples 4-8: cortical and cancellous bone ash and mineral profile; format: in vivo, pig; settings: 8 wk, 0.35% iP + Sr 50 mg/kg + phytase 3,400 U/kg
# [2] = Expt 2, plasma, phytase 2000 U/kg and/or Sr 50 mg/kg
# Experimental: Pigs were penned in an environmentally controlled barn (20-25° C.; 12 h light: 12 h dark cycle), and were allowed free access to feed and water.
# Blood samples of individual pigs were collected at initial (wk 0) and then weekly from the anterior vena cava into heparinized tubes after an overnight fast (8 h). The collected whole blood samples were chilled on ice and centrifuged at 3,000×g (GS-6KR centrifuge, Beckman Instruments Inc.) for 10 min at 4° C. to prepare plasma for assays of inorganic P concentrations and alkaline phosphatase activity.
# The hydrolysis of p-nitrophenol phosphate to p-nitrophenol was used to measure plasma alkaline phosphatase activity^(27). The enzyme unit was defined as 1 μmol of p-nitrophenol released per minute at 30° C.
# [3] = test system: weanling pigs fed high P diet; assay: Examples 4-8: radiographic bone density and metacarpal histomorphometry; format: in vivo, pig; settings: 8 wk
# Experimental: As in Examples 1-3, the animal protocol was approved by Cornell Animal Care and Use Committee. An 8-week feeding trial was conducted at Cornell University Swine Research Farm. Thirty weanling pigs (Yorkshire×Hampshire×Landrace, body weight=8.6±0.5 kg) were allocated into three groups (n=10). […] were fed a corn-soy basal diet (BD)+0.25% inorganic phosphorus (iP, dicalcium phosphate). Group 2 were fed BD+0.35% iP. Group 3 were fed BD+0.35% iP+3,400 units of phytase/kg (Escherichia coli appA2, OptiPhos, JBS United, Inc., Sheridan, Ind.). The BD (Table 7) contained adequate levels of all nutrients except for P^(63), and 0.25% iP is the supplementation level recommended by NRC^(24) to meet the P needs of this age of pigs. […] Pigs were housed in an environmentally-controlled barn (20-25° C.; 12-light: 12-dark cycle), and given free access to feed and water.
# After the skin and major muscles were removed, two left legs were subjected to X-ray radiography using a Faxitron machine (Model 43855A; Hewlett Packard, McMinnville, Oreg., USA). Bone radiographs of femur and metacarpals were quantified by the kodac software. The software counted the total number of pixels. Thereafter, the 3rd and 4th metacarpals and femurs were collected to measure length, weight, height, and width after removing the remaining muscle and connective tissue. After the X-ray analysis, the two left legs were used for bone mechanical and mineral testing. Bone mechanical properties were determined by a three-point bending test (ASAE Standard S459 1992) using an Instron 4500 Machine Universal Testing Instrument (Model 1122, Instron, Canton, Mass.) with Instron Series IX Automated Materials Testing System Software (version 4.05). During testing, force was applied to the center of the bone held by supports 2.0 cm apart for metacarpals and 3.3 cm apart for femurs. The crosshead speed was set at 50 mm/min and the sampling rate was at 10 points/sec. The extrinsic parameters (stiffness/slope, maximum load, energy to break, maximum displacement) were derived from the force-displacement curve. Bone breaking strength was calculated with the adjustment of bone weight, and the average strength of the 3rd and 4th metacarpal was used as the metacarpal strength for each pig.
# Metacarpals (4th) from right foot of pigs (n=5 for each group) were quickly fixed by 10% formalin for histology, decalcified, embedded in paraffin sagittally serially sectioned through the midline (8 μm), and stained with Masson's trichrome as previously described^(74). Variation of bone matrix mineralization was detected by modified tetrachrome method^(75). Sulfated proteoglycans were detected by alcian blue staining^(76) and counter staining with Mayer's acid haematoxylin. PCI software—CIMAGING System (Model 1280, Compix Inc., Cranberry, Pa.)—was applied to measure bone surface, osteoid, bone volume, trabecular thickness, number, and separation, and proteoglycans surface. Trabecular size and separation distances were measured by the software measurement scale. Trabecular numbers were counted within a specified field. For proteoglycans measurement, the total area of trabecular bone was first captured to define the region of interest (ROI). Then, within the ROI the blue color area of proteoglycans was captured and its area measured to define the object area. For osteoid measurement, the first cortical bone surface was the object. The area fraction of the deep green in the periosteal area was expressed as: Area fraction (%)=Object area/Region of interest (ROI)×100.
# [4] = test system: pigs fed P-adequate corn-soybean meal basal diet; assay: Expt 2: metatarsal and femur breaking strength, three-point bending test; format: in vivo, pig; settings: main effect, phytase 2,000 U/kg or Sr 50 mg/kg
# Experimental: (§1) Third and 4th metatarsals in both experiments and femur (right leg) in Experiment 2 were prepared by manually removing surrounding skin, muscle and other tissues. Bones were stored in closed plastic bags at 4° C. until strength analysis. Maximal breaking load was measured using an Instron 4500 Machine (Canton, Mass.) at room temperature (23° C.) by subjecting each bone to a three-point bending test^(28). During mechanical tests, force was applied to the center of the bone held by supports 2.0 cm apart for metatarsals and 3.3 cm apart for femur. The crosshead speed was set at 50 mm/min and the sample rate was 10 points/s. Final strength was determined from load-displacement curves indicating the maximum loads. The metatarsal breaking strength was expressed as the mean strength of four bones from both left and right feet of pigs in Experiment 1, and as the mean of the two bones from the right foot of pigs in Experiment 2.
# [5] = test system: pigs fed P-adequate corn-soybean meal basal diet; assay: Expt 1: metatarsal breaking strength, three-point bending test; format: in vivo, pig; settings: BD + phytase 2,000 U/kg, 6 wk
# Experimental: Based on results of the preliminary trials, Experiment 1 was conducted with 24 gilts (6-wk old, 8.6±0.1 kg body weight) to test the possible benefit of phytase to metatarsal breaking load of pigs fed the corn-soybean meal basal diet (BD, Table 1). The BD contained 0.33% available P and adequate concentrations of all other required nutrients (24). The selected pigs were divided into two groups (n=12), and were fed BD or BD+phytase at 2,000 U/kg for 6 wk.
# as §1, with “Experiment 2. […]” for “Experiment 2.”
# [6] = 0.35% iP + Sr 50 mg/kg + phytase 3,400 U/kg, P<0.001
# [7] = phytase 3,400 U/kg into the 0.35% iP diet, P<0.001
# [8] = phytase 3,400 U/kg into the 0.35% iP diet, P<0.05
molecule,measurement,setting,value
B1,"decrease of Ca concentration in cancellous bones, femur and metacarpus",[1],11 to 19%
same,"total ash concentration of cortical bone, femurs",[1],not altered
same,"elevation of Sr concentration in cancellous bone, femur",[1]; P<0.002,127 fold
same,"increase in Fe concentration of cancellous bone, metacarpus",[1]; P<0.05,22%
same,Alkaline phosphatase activity,[2]; week 0 (initial),202.1 U/L
same,Alkaline phosphatase activity,[2]; week 5 (final),149.9 U/L
same,improvement of femur bone density (radiograph image pixel numbers) vs 0.35% iP,[3]; [6],28%
same,improvement of metacarpus bone density (radiograph image pixel numbers) vs 0.35% iP,[3]; [6],20%
same,increase in metacarpal bone volume vs 0.35% iP,[3]; [6],38%
same,enhancement of osteoid thickness in the periosteal area,[3]; [7],60%
same,increase of sulfated proteoglycans in cancellous bone,[3]; [7],18%
same,"decrease in trabecular separation, metacarpal bone",[3]; [8],37%
same,"increase in trabecular density, metacarpal bone",[3]; [8],42%
same,"increase in trabecular thickness, metacarpal bone",[3]; [8],51%
same,improvement in breaking strength of femur,[4],20%
same,improvement in breaking strength of metatarsals,[4],16%
same,breaking strength of metatarsals,[5],112.0 ± 3.9 kg
same,greater breaking strength of metatarsals vs BD,[5]; P<0.02,12%
